Test results: IntAct's records for PubMed 15546919

B1: Arf-GAP with Rho-GAP domain, ANK repeat and PH domain-containing protein 3 (Mus musculus), Q8R5G7 (parent)
chain: MAAPQDLDIAVWLALVHLEQYADTFRRHGLATAGAAQHLGHEELRHLGISATGHRKRILRLLRAGSAEGFLDSHLDNTMEPTPSPAPDAQPPKPVPKPRTVFGLSNPATAQRPGLSPIFWDPEVSRNSECTQRSSPLLPSSSEQPSVPNTMEMMPNAIYFGLDLRGRAQAAQDVTPDSSQATVPTPAFRPTTGTVHIMDPGCLYYGVQPVGIPGASDRRDGRGVCQERAEHRQDLETREDAGYASLELPGDSILSLPTQDAETSDDLISPYASFSSTADRPVPLLSGWLDKLSPQGNYVFQRRFVQFNGRSLMYFGSDKDPFPKGVIPLTAIEMTRSSKDNKFQVITGQRVFVFRTESEAQRDLWCSTLQSCLKEQRLLGHPRPPHPPRPLRTGTLELRGHKAKVFAALIPGELALYKSEQAFSLGIGICFIELQGCSVRETKSRSFDLLTPHRCFSFTAESGGARQSWAAALQEAVTETLSDYEVAEKVWSNPANRHCADCRASRPDWAAVNLGVVICKQCAGQHRALGSGISKVQSLKLDTSVWSNEIVQLFIVLGNDRANCFWAGALPPGEGLHPDSAPGPRGEFISRKYKLGLFRKPHPRHPDHSQLLQALCAAMAGPNLLKNMAQLLCVETSEGEEPLSPSALNGSLLSLLPSDSPGVYNEVVVPATYRGFLYCGSISNKAGAPPLRRGRDAPPRLWCVLGAALEMFASESSPEPLSLLQPQDIVCLGVSPPPADPGDLDRFPFSFELILTGGRIQHFATDGADSLEAWISAVGKWFSPLSCHQLLGPGLLRMGRLWLRSPSHAGLAPGLWLSGFGLLRGDHLFLCPAPGPGPPAPEDMVHLRRLQEISVVSAADTPDKKEHLVLVETGRTLYLQGEGRLDFAAWNTAIGGAAGGGGTGLQEQQMSRGDIPIIVDACISFVTQHGLRLEGVYRKGGARARSLRLLAEFRRDARSVKLRPREHFVEDVTDTLKRFFRELDDPVTSARLLPRWREAAELSQKNQRLEKYKEVISCLPRVNRRTLATLIGHLYRVQKCASLNQMCTRNLALLFAPSVFQTDGRGEHEVRVLQELIDGYISVFDIDSDQAAQIDLEVSLITTWKDVQLSQAGDLIMEVYIEQQLPDNCVTLKVSPTLTAEELTNQVLEMRGAASGTDLWVTFEILEHGELERPLHPKEKVLEQALQWCQLPEPCSASLLLRKVSMAHAGCLFTGVRRESPRVGLLRCREEPPRLLGNRFQERFFLVRGRCLLLLKEKKSSKPEREWSLEGAKVYLGIRKKLKPPTLWGFTLILEKMHLCLSCMDEEEMWDWTTSILKAQHDDQQSVVLRRRSSSDLARQKFGTMPLLPIRGDDSGATLLSANQTLRRLHNRRTLSMFFPMKSPQGSVEEQDELEEPVYEEPVYEEVGAFPELTKDTTFSSTWEWSAKSDPSLTSQRSFDQPPLSKASMLGHEERIPDPPPGPPSKSSSQARGSLEEQLLQELNNLILRKGEPASCPESSSQPTSPQAPSPTSLPTPTPSLPTQPPCTSNPPSSQPLT

Variants of: B1
Settings: with src_human SRC

effect of a mutation on the interaction	Variant
decreasing interaction	Y1399F;Y1404F
